From article PMC3627599

T1: MAZ (Homo sapiens (pGEX-hMAZ), UniProt P56270 1-477)
T1 sequence: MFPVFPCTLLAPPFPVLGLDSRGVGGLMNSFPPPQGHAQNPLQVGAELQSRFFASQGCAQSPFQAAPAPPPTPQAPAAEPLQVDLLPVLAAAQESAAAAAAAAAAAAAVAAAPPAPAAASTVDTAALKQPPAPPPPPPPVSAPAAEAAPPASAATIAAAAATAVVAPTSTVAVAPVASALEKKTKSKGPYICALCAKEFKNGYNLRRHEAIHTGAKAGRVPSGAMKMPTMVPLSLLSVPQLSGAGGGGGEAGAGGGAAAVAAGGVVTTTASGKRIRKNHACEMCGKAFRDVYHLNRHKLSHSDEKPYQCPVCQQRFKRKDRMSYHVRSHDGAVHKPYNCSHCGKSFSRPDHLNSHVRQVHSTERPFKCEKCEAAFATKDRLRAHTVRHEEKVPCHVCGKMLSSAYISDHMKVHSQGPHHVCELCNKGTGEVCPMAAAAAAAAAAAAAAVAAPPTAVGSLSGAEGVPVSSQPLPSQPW


Columns and labels:
MAZ [1] = biological target: T1, MAZ; experiment: double-filter binding
MAZ [2] = biological target: T1, MAZ; experiment: competition

| Binder | Kd (MAZ [1]) [nM] | binding result (MAZ [2]) |
| --- | --- | --- |
| GCGGTGTGGGAAGAGGGAAGAGGGGGAGGCAG (structured_DNA) [32R-3n] | 320 ± 2 | – |
| GCGGTGTGGGAAGAGGGAAGAGGGGGAGGCAG (XNA, AMANY inserted after G10 and after A21; 2 LNA at 3' end) [3044] | – | binds |
